Patent US20210369842A1 (Genmab, published 2021)

Tests used:
Human PD-L1 [1] = target: T1, Human PD-L1 (human, UniProt Q9NZQ7 19-290); test: flow cytometry on SK-MES-1 cells, PE-conjugated goat anti-human IgG F(ab')2 as secondary
T1 construct: Amino acids 1-18 are stated as the predicted signal peptide; also called CD274; B7H1
Procedure: (§1) Cells (3-5×10⁴ cells/well) were incubated in polystyrene 96-well round-bottom plates (Greiner bio-one, cat. no. 650101) with serial dilutions of antibodies (range 0.0001 to 10 μg/mL in 5-fold dilution steps) in 50 μL PBS/0.1% BSA/0.02% azide (FACS buffer) at 4° C. for 30 min. After washing twice in FACS buffer, cells were incubated with secondary antibody at 4° C. for 30 min. As a secondary antibody, R-Phycoerythrin (PE)-conjugated goat-anti-human IgG F(ab′)₂ (Cat. no. 109-116-098, Jackson ImmunoResearch Laboratories, Inc., West Grove, Pa.) diluted 1:500 in 50 μL FACS buffer, was used for all experiments. Next, cells were washed twice in FACS buffer, re-suspended in 20 μL FACS buffer and analyzed on an iQue screener (Intellicyt Corporation, USA). Binding curves were analyzed using non-linear regression (sigmoidal dose-response with variable slope) using GraphPad Prism V75.04 software (GraphPad Software, San Diego, Calif., USA).

Human PD-L1 [2] = target: T1, Human PD-L1; test: flow cytometry on PC-3 cells, PE-conjugated goat anti-human IgG F(ab')2 as secondary
Procedure: as §1

Human PD-L1 [3] = target: T1, Human PD-L1; test: flow cytometry on MDA-MB-231 cells, PE-conjugated goat anti-human IgG F(ab')2 as secondary
Procedure: as §1

Human CD137 = Human CD137 (human, UniProt Q07011 24-255); test: cell-based or functional assay
Human PD-L1 [4] = target: T1, Human PD-L1; test: cell-based or functional assay

T1 sequence (Q9NZQ7 19-290): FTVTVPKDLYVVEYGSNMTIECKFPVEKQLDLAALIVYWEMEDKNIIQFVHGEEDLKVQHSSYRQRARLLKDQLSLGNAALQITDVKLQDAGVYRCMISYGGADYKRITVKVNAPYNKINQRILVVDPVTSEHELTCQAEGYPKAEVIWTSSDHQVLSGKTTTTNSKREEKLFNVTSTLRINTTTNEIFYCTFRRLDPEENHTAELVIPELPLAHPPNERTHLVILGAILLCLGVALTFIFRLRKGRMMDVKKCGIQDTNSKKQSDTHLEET
Human CD137, sequence (Q07011 24-255): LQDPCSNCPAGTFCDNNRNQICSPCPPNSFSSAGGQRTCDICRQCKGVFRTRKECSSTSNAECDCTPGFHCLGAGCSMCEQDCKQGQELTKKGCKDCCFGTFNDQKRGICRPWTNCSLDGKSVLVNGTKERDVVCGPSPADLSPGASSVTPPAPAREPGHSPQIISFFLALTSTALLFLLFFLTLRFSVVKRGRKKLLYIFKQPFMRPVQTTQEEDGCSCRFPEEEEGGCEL

| Binder | EC50 (read off the curve) (Human PD-L1 [1]) | EC50 (read off the curve) (Human PD-L1 [2]) | EC50 (read off the curve) (Human PD-L1 [3]) | binding result (Human PD-L1 [3]) | EC50 value, CD8+ T-cell expansion (donor 1, 0.03 µg/ml anti-CD3) (Human CD137) | EC50 value, CD8+ T-cell expansion (donor 2, 0.09 µg/ml anti-CD3) (Human CD137) | EC50 (read off the curve); fold induction in the PD-1/PD-L1 inhibition bioassay, blocked partner human PD-1 (Human PD-L1 [4]) |
| --- | --- | --- | --- | --- | --- | --- | --- |
| PD-L1-547-FEAR (antibody, human IgG1, lambda, V domains shown, Human IgG1 lambda with L234F, L235E, D265A and K409R (FEAR)) VH: EVQLLEPGGGLVQPGGSLRLSCEASGSTFSTYAMSWVRQAPGKGLEWVSGFSGSGGFTFYADSVRGRFTISRDSSKNTLFLQMSSLRAEDTAVYYCAIPARGYNYGSFQHWGQGTLVTVSS VL: SYVLTQPPSVSVAPGQTARITCGGNNIGSKSVHWYQQKPGQAPVLVVYDDNDRPSGLPERFSGSNSGNTATLTISRVEAGDEADYYCQVWDSSSDHVVFGGGTKLTVLG | ~0.1 µg/mL | ~0.04 µg/mL | ~0.05 µg/mL |  |  |  |  |
| b12 (antibody, V domains shown, also called monospecific, bivalent b12 antibody; gp120 specific antibody) VH: QVQLVQSGAEVKKPGASVKVSCQASGYRFSNFVIHWVRQAPGQRFEWMGWINPYNGNKEFSAKFQDRVTFTADTSANTAYMELRSLRSADTAVYYCARVGPYSWDDSPQDNYYMDVWGKGTTVIVSS VL: EIVLTQSPGTLSLSPGERATFSCRSSHSIRSRRVAWYQHKPGQAPRLVIHGVSNRASGISDRFSGSGSGTDFTLTITRVEPEDFALYYCQVYGASSYTFGQGTKLERK |  |  |  | no binding (tested: 10 µg/mL) |  |  |  |
| PD-L1-547-FEALxCD137-009-HC7LC2-FEAR (bispecific antibody, human IgG1, kappa, lambda) heavy 1: EVQLLEPGGGLVQPGGSLRLSCEASGSTFSTYAMSWVRQAPGKGLEWVSGFSGSGGFTFYADSVRGRFTISRDSSKNTLFLQMSSLRAEDTAVYYCAIPARGYNYGSFQHWGQGTLVTVSSASTKGPSVFPLAPSSKSTSGGTAALGCLVKDYFPEPVTVSWNSGALTSGVHTFPAVLQSSGLYSLSSVVTVPSSSLGTQTYICNVNHKPSNTKVDKRVEPKSCDKTHTCPPCPAPEFEGGPSVFLFPPKPKDTLMISRTPEVTCVVVAVSHEDPEVKFNWYVDGVEVHNAKTKPREEQYNSTYRVVSVLTVLHQDWLNGKEYKCKVSNKALPAPIEKTISKAKGQPREPQVYTLPPSREEMTKNQVSLTCLVKGFYPSDIAVEWESNGQPENNYKTTPPVLDSDGSFLLYSKLTVDKSRWQQGNVFSCSVMHEALHNHYTQKSLSLSPGK light 1: SYVLTQPPSVSVAPGQTARITCGGNNIGSKSVHWYQQKPGQAPVLVVYDDNDRPSGLPERFSGSNSGNTATLTISRVEAGDEADYYCQVWDSSSDHVVFGGGTKLTVLGQPKAAPSVTLFPPSSEELQANKATLVCLISDFYPGAVTVAWKADSSPVKAGVETTTPSKQSNNKYAASSYLSLTPEQWKSHRSYSCQVTHEGSTVEKTVAPTECS heavy 2: EVQLVESGGGLVQPGRSLRLSCTASGFSLNDYWMSWVRQAPGKGLEWVGYIDVGGSLYYAASVKGRFTISRDDSKSIAYLQMNSLKTEDTAVYYCARGGLTYGFDLWGQGTLVTVSSASTKGPSVFPLAPSSKSTSGGTAALGCLVKDYFPEPVTVSWNSGALTSGVHTFPAVLQSSGLYSLSSVVTVPSSSLGTQTYICNVNHKPSNTKVDKRVEPKSCDKTHTCPPCPAPEFEGGPSVFLFPPKPKDTLMISRTPEVTCVVVAVSHEDPEVKFNWYVDGVEVHNAKTKPREEQYNSTYRVVSVLTVLHQDWLNGKEYKCKVSNKALPAPIEKTISKAKGQPREPQVYTLPPSREEMTKNQVSLTCLVKGFYPSDIAVEWESNGQPENNYKTTPPVLDSDGSFFLYSRLTVDKSRWQQGNVFSCSVMHEALHNHYTQKSLSLSPGK light 2: DIVMTQSPSSLSASVGDRVTITCQASEDISSYLAWYQQKPGKAPKRLIYGASDLASGVPSRFSASGSGTDYTFTISSLQPEDIATYYCHYYATISGLGVAFGGGTKVEIKRTVAAPSVFIFPPSDEQLKSGTASVVCLLNNFYPREAKVQWKVDNALQSGNSQESVTEQDSKDSTYSLSSTLTLSKADYEKHKVYACEVTHQGLSSPVTKSFNRGEC |  |  |  |  | 0.0122 µg/mL | 0.00689 µg/mL |  |
| b12-FEALxPD-L1-547-FEAR (bispecific antibody, also called monovalent PD-L1 antibody; monovalent PD-L1-control antibody) heavy 1: QVQLVQSGAEVKKPGASVKVSCQASGYRFSNFVIHWVRQAPGQRFEWMGWINPYNGNKEFSAKFQDRVTFTADTSANTAYMELRSLRSADTAVYYCARVGPYSWDDSPQDNYYMDVWGKGTTVIVSSASTKGPSVFPLAPSSKSTSGGTAALGCLVKDYFPEPVTVSWNSGALTSGVHTFPAVLQSSGLYSLSSVVTVPSSSLGTQTYICNVNHKPSNTKVDKRVEPKSCDKTHTCPPCPAPEFEGGPSVFLFPPKPKDTLMISRTPEVTCVVVAVSHEDPEVKFNWYVDGVEVHNAKTKPREEQYNSTYRVVSVLTVLHQDWLNGKEYKCKVSNKALPAPIEKTISKAKGQPREPQVYTLPPSREEMTKNQVSLTCLVKGFYPSDIAVEWESNGQPENNYKTTPPVLDSDGSFLLYSKLTVDKSRWQQGNVFSCSVMHEALHNHYTQKSLSLSPGK light 1: EIVLTQSPGTLSLSPGERATFSCRSSHSIRSRRVAWYQHKPGQAPRLVIHGVSNRASGISDRFSGSGSGTDFTLTITRVEPEDFALYYCQVYGASSYTFGQGTKLERKRTVAAPSVFIFPPSDEQLKSGTASVVCLLNNFYPREAKVQWKVDNALQSGNSQESVTEQDSKDSTYSLSSTLTLSKADYEKHKVYACEVTHQGLSSPVTKSFNRGEC heavy 2: EVQLLEPGGGLVQPGGSLRLSCEASGSTFSTYAMSWVRQAPGKGLEWVSGFSGSGGFTFYADSVRGRFTISRDSSKNTLFLQMSSLRAEDTAVYYCAIPARGYNYGSFQHWGQGTLVTVSSASTKGPSVFPLAPSSKSTSGGTAALGCLVKDYFPEPVTVSWNSGALTSGVHTFPAVLQSSGLYSLSSVVTVPSSSLGTQTYICNVNHKPSNTKVDKRVEPKSCDKTHTCPPCPAPEFEGGPSVFLFPPKPKDTLMISRTPEVTCVVVAVSHEDPEVKFNWYVDGVEVHNAKTKPREEQYNSTYRVVSVLTVLHQDWLNGKEYKCKVSNKALPAPIEKTISKAKGQPREPQVYTLPPSREEMTKNQVSLTCLVKGFYPSDIAVEWESNGQPENNYKTTPPVLDSDGSFFLYSRLTVDKSRWQQGNVFSCSVMHEALHNHYTQKSLSLSPGK light 2: SYVLTQPPSVSVAPGQTARITCGGNNIGSKSVHWYQQKPGQAPVLVVYDDNDRPSGLPERFSGSNSGNTATLTISRVEAGDEADYYCQVWDSSSDHVVFGGGTKLTVLGQPKAAPSVTLFPPSSEELQANKATLVCLISDFYPGAVTVAWKADSSPVKAGVETTTPSKQSNNKYAASSYLSLTPEQWKSHRSYSCQVTHEGSTVEKTVAPTECS | ~0.2 µg/mL | ~0.05 µg/mL | ~0.06 µg/mL |  |  |  | ~0.1 µg/mL |
